The values below are quoted from earlier work in paper PMC5331467.

For this data set, the target named is Tyr7 (UniProt position 7, SHHWGYGKHNG). Briefly: NMR (jointly with neutron crystallography).

In general, pKa refers to the negative logarithm of the acid dissociation constant. As for “Carbonic anhydrase II (CA-II) (Homo sapiens)”, the pKa was 7.1.
